Assay results as given in US20210246204A1 (Alector, published 2021).

B1: S7AB-H8.9.1 (antibody, V domains shown)
VH: QVQLVQSGAEVKKPGASVKVSCKASGYAFTAAWMNWVRQAPGQRLEWIGRIFPGLGHTNYAQKFQGRATLTEDTSTSTAYMELSSLRSEDTAVYYCARDYSDYYFDYWGQGTLVTVSS
VL: DIQMTQSPSSLSASVGDRVTITCRGSQDINTYLNWYQQKPGKAPKLLIYYTSRLHSGVPSRFSGSGSGTDYTLTISSLQPEDFATYYCQQGNTKPWTFGQGTKLEIK
B2: S7AB-H8.29.1 (antibody, V domains shown)
VH: QVQLVQSGAEVKKPGASVKVSCKASGYAFTAAWMNWVRQAPGQRLEWIGRIFPGLGHTNYAQKFQGRATLTEDTSTSTAYMELSSLRSEDTAVYYCARDYSDYYFDYWGQGTLVTVSS
VL: DIQMTQSPSSLSASVGDRVTITCRASQDANTYLNWYQQKPGKAPKLLIYYTSRLHSGVPSRFSGSGSGTDYTLTISSLQPEDFATYYCQQGNLLPWTFGQGTKLEIK
B3: S7AB-H8.10.1 (antibody, V domains shown)
VH: QVQLVQSGAEVKKPGASVKVSCKASGYAFTEAWMNWVRQAPGQRLEWIGRIFPGYGHTNYAQKFQGRATLTEDTSTSTAYMELSSLRSEDTAVYYCARDYSDYYFDYWGQGTLVTVSS
VL: DIQMTQSPSSLSASVGDRVTITCRGSQDINTYLNWYQQKPGKAPKLLIYYTSRLHSGVPSRFSGSGSGTDYTLTISSLQPEDFATYYCQQGNTKPWTFGQGTKLEIK
B4: S7AB-H8.10.2 (antibody, V domains shown)
VH: QVQLVQSGAEVKKPGASVKVSCKASGYAFTEAWMNWVRQARGQRLEWIGRIFPGYGHTNYAQKFQGRATLTEDTSTSTAYMELSSLRSEDTAVYYCARDYSDYYFDYWGQGTLVTVSS
VL: DIQMTQSPSSLSASVGDRVTITCRGSQDINTYLNWYQQKPGKAPKLLIYYTSRLHSGVPSRFSGSGSGTDYTLTISSLQPEDFATYYCQQGNTKPWTFGQGTKLEIK
B5: S7AB-H8.9.2 (antibody, V domains shown)
VH: QVQLVQSGAEVKKPGASVKVSCKASGYAFTAAWMNWVRQARGQRLEWIGRIFPGLGHTNYAQKFQGRATLTEDTSTSTAYMELSSLRSEDTAVYYCARDYSDYYFDYWGQGTLVTVSS
VL: DIQMTQSPSSLSASVGDRVTITCRGSQDINTYLNWYQQKPGKAPKLLIYYTSRLHSGVPSRFSGSGSGTDYTLTISSLQPEDFATYYCQQGNTKPWTFGQGTKLEIK
B6: S7AB-H8.29.2 (antibody, V domains shown)
VH: QVQLVQSGAEVKKPGASVKVSCKASGYAFTAAWMNWVRQARGQRLEWIGRIFPGLGHTNYAQKFQGRATLTEDTSTSTAYMELSSLRSEDTAVYYCARDYSDYYFDYWGQGTLVTVSS
VL: DIQMTQSPSSLSASVGDRVTITCRASQDANTYLNWYQQKPGKAPKLLIYYTSRLHSGVPSRFSGSGSGTDYTLTISSLQPEDFATYYCQQGNLLPWTFGQGTKLEIK

molecular target: human Siglec-7 on primary human monocyte-derived dendritic cells (human, UniProt Q9Y286 19-467); assay: cell-based or functional assay
Sequence (Q9Y286 19-467): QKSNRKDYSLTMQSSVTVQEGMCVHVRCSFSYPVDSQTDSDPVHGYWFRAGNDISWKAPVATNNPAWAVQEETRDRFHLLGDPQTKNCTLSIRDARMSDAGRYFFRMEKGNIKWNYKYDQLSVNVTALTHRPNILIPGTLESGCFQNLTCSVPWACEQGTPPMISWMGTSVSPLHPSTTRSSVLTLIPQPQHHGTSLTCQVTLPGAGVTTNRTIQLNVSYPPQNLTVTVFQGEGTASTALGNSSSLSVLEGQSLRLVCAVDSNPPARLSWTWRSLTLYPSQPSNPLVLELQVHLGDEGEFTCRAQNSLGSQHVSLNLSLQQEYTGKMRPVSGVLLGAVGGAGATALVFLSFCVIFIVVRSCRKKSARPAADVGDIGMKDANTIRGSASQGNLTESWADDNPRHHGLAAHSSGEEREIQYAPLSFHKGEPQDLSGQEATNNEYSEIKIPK

Point of comparison: B4, “Fold increase in potency compared to AB-H8” value 2.1 fold. Against it:
- B1 — higher, 3.5 fold
- B2 — higher, 6.8 fold
- B3 — higher, 2.4 fold
- B5 — higher, 3.1 fold
- B6 — higher, 4.1 fold

Point of comparison: B1, “Fold increase in potency compared to Chimeric Ab” value 10.5 fold. Against it:
- B2 — higher, 20.4 fold
- B3 — lower, 7 fold
- B4 — lower, 6.4 fold
- B5 — lower, 9.2 fold
- B6 — higher, 12.2 fold

Point of comparison: B4, “Maximal downregulation (% Siglec-7 remaining)” value 12.1%. Against it:
- B1 — lower, 4.3%
- B2 — lower, 5.3%
- B3 — lower, 10.7%
- B5 — lower, 4.5%
- B6 — lower, 4.9%

Point of comparison: B5, “Receptor downregulation, (EC50) (pM)” value 118 pM. Against it:
- B1 — lower, 103 pM
- B2 — lower, 53.2 pM
- B3 — higher, 154 pM
- B4 — higher, 169 pM
- B6 — lower, 88.9 pM
